Assay [1] concerns the target recombinant human Plexin B1 with a 6X His tag at C-terminus (human) (UniProt O43157). Description: ELISA; direct ligand-receptor (LRA) ELISA; Plexin B1 (8-10 ug/mL) immobilised on Immulon 2 plates overnight, Sema4 in solution in varying doses from 2 ug/mL; detection by HRP-labelled Abs to tags; fit 'One site-specific binding with Hill slope'.
Assay [2] has as its target NRP1 (UniProt O14786). The assay is described as follows: ELISA; LRA ELISA of Sema4A and NRP1 (Supplemental Figure S2). A general note: An ELISA detects its analyte on a solid surface through an enzyme-linked reagent.
Assay [3] has as its target Plexin B1 (Homo sapiens) (UniProt O43157). The assay is described as follows: SPR. Conditions: cited from earlier work.
The target is the same in assay [4]. The assay is described as follows: cell-based ELISA. To be noted: cited from earlier work.
Assay [5] addresses Plexin D1 (UniProt Q9Y4D7). Description: SPR. To be noted: cited from earlier work.
The target of assay [6] is soluble recombinant human Sema4A (GST- or Fc-tagged, as used in Figures 2 and 3) (human) (UniProt Q9H3S1). Description: ELISA; reverse LRA ELISA; Sema4 (2 ug/mL) coated on Immulon 2 plates overnight at 4 C in 0.1 M sodium carbonate-bicarbonate buffer, rhPlexin B1 in solution in varying doses from 10 ug/mL.
For assay [7], the target named is T1, recombinant human Plexin B1 with a 6X His tag at C-terminus (human, UniProt O43157 20-1490).
T1 construct: Plexin B1, human; Only the molecular weight (66 kDa) is printed; it must be a fragment of the extracellular part, limits unknown; also called rhPlexin B1; rhPlexin B1-His; source: bought: GenScript; not shown: His6, C-terminal, kept
T1 sequence (looked up): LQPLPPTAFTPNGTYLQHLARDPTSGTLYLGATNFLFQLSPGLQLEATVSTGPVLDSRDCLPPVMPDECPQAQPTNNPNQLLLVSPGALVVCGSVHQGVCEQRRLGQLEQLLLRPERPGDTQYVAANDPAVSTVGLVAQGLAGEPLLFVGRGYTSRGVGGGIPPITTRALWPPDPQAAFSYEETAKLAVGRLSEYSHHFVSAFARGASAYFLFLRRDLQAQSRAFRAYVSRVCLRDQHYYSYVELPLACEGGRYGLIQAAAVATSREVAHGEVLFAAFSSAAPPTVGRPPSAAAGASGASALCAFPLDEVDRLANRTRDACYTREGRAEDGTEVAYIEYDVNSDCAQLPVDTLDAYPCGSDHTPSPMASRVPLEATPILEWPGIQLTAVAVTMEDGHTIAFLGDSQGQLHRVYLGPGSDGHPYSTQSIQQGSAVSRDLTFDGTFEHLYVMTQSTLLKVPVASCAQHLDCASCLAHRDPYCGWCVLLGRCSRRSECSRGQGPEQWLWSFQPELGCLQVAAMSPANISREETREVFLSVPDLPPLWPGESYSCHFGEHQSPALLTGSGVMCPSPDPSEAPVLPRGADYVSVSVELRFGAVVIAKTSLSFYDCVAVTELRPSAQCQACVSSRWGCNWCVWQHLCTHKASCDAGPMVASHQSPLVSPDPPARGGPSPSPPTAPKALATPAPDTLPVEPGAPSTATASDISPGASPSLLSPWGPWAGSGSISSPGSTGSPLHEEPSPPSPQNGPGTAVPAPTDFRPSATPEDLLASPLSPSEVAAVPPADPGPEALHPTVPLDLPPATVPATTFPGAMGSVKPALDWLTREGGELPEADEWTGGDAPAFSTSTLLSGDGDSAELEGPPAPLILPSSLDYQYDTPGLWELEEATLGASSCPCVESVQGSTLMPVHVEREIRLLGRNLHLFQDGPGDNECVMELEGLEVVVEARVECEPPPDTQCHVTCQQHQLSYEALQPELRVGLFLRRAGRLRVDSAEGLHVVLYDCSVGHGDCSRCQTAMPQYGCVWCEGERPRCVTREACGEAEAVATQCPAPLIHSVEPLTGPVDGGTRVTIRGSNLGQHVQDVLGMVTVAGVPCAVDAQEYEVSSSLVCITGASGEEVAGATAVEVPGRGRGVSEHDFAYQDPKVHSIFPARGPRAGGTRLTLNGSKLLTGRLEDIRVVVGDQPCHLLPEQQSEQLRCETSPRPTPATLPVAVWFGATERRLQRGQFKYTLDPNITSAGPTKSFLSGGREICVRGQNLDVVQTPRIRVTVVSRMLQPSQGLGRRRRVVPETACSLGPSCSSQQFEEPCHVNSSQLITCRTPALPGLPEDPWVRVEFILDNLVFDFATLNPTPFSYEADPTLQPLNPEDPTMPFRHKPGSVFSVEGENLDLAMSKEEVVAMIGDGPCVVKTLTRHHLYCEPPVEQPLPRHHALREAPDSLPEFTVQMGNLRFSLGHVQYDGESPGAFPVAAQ
Description: ELISA; direct LRA ELISA; Plexin B1-His (10 ug/mL) captured on HIS-Select nickel-coated microplates in Tris buffer overnight, Sema4 in solution in varying doses from 2 ug/mL. Conditions: both partners purified.

The target in assay [8] is T1, recombinant human Plexin B1 with a 6X …. The assay is described as follows: ELISA; reverse LRA ELISA; Sema4 (2 ug/mL) coated on Immulon 2 plates overnight at 4 C in 0.1 M sodium carbonate-bicarbonate buffer, rhPlexin B1 in solution in varying doses from 10 ug/mL. To be noted: both partners purified.

Plexin D1, sequence (Q9Y4D7 47-1271): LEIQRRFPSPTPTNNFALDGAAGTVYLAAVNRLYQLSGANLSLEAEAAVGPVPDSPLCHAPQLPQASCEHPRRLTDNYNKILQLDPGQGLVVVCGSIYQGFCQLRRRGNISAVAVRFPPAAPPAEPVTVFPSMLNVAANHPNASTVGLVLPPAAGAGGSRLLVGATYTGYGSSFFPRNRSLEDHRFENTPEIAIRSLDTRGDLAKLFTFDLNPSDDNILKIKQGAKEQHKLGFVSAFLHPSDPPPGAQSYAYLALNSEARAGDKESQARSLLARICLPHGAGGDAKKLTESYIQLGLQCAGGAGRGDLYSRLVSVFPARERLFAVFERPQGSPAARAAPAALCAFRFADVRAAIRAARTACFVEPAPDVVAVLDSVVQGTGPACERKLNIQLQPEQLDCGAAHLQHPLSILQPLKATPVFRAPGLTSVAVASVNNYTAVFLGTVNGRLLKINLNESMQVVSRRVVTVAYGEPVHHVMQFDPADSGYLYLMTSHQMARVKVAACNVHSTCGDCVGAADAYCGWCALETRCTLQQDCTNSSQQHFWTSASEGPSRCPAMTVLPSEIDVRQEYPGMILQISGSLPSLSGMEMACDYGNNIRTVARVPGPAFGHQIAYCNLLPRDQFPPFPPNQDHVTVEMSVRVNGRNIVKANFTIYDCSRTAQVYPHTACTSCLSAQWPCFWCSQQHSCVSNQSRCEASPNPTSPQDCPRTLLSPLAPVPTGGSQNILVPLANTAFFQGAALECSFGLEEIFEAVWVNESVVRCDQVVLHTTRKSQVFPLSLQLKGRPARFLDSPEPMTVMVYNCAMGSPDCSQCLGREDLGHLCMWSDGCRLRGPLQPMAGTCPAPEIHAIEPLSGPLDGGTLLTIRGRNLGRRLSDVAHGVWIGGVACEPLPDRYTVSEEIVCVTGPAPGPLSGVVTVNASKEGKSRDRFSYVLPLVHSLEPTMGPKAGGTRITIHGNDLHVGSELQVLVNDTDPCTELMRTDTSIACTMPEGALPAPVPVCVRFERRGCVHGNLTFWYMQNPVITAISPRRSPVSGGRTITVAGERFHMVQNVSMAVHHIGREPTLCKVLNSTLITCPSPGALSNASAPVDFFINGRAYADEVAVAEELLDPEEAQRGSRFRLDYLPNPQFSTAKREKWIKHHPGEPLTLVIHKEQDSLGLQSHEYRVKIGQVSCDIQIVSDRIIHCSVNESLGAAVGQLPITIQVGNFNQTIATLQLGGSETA
NRP1, sequence (O14786 22-856): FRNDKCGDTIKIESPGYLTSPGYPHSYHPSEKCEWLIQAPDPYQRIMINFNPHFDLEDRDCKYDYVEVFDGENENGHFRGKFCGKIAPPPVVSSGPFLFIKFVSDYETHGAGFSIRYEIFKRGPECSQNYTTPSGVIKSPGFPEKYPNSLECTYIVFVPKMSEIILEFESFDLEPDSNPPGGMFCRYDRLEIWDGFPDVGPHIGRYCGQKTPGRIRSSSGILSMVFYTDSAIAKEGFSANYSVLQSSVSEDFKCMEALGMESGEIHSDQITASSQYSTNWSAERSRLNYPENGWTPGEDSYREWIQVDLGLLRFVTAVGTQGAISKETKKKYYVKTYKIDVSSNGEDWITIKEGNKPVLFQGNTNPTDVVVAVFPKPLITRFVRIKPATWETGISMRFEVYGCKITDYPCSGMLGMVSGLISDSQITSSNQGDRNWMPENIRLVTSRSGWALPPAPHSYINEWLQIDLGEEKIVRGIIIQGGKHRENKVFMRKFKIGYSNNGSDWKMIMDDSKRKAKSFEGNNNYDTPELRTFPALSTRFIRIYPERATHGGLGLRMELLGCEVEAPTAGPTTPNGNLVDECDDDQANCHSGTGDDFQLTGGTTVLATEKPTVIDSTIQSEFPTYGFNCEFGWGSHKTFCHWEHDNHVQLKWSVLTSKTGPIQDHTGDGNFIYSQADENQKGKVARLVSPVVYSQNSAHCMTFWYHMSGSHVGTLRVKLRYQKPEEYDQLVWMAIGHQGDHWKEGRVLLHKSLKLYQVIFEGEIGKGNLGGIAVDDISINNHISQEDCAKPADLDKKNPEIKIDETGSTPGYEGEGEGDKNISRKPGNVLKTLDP

As a reminder, the Kd is a measure of binding affinity in units of concentration. As to “soluble recombinant human Sema4A (GST- or Fc-tagged, as used in Figures 2 and 3) (from UniProt Q9H3S1 33-683) (ligand)”, the figures for the Kd in assay [1] and in assay [2] were 0.0199 µM and 0.0283 µM, respectively. For “Sema4D Sema domain (from UniProt Q92854)”, the Kd in assay [3] was 5500 µM. As for Sema4D (from UniProt Q92854), the Kd in assay [4] is 0.0009 µM.

For Sema4A (from UniProt Q9H3S1), in assay [5], the equilibrium dissociation constant (Kd) was 0.00872 µM.

B1: recombinant human Plexin B1 with a 6X His tag at C-terminus (receptor)
chain: LQPLPPTAFTPNGTYLQHLARDPTSGTLYLGATNFLFQLSPGLQLEATVSTGPVLDSRDCLPPVMPDECPQAQPTNNPNQLLLVSPGALVVCGSVHQGVCEQRRLGQLEQLLLRPERPGDTQYVAANDPAVSTVGLVAQGLAGEPLLFVGRGYTSRGVGGGIPPITTRALWPPDPQAAFSYEETAKLAVGRLSEYSHHFVSAFARGASAYFLFLRRDLQAQSRAFRAYVSRVCLRDQHYYSYVELPLACEGGRYGLIQAAAVATSREVAHGEVLFAAFSSAAPPTVGRPPSAAAGASGASALCAFPLDEVDRLANRTRDACYTREGRAEDGTEVAYIEYDVNSDCAQLPVDTLDAYPCGSDHTPSPMASRVPLEATPILEWPGIQLTAVAVTMEDGHTIAFLGDSQGQLHRVYLGPGSDGHPYSTQSIQQGSAVSRDLTFDGTFEHLYVMTQSTLLKVPVASCAQHLDCASCLAHRDPYCGWCVLLGRCSRRSECSRGQGPEQWLWSFQPELGCLQVAAMSPANISREETREVFLSVPDLPPLWPGESYSCHFGEHQSPALLTGSGVMCPSPDPSEAPVLPRGADYVSVSVELRFGAVVIAKTSLSFYDCVAVTELRPSAQCQACVSSRWGCNWCVWQHLCTHKASCDAGPMVASHQSPLVSPDPPARGGPSPSPPTAPKALATPAPDTLPVEPGAPSTATASDISPGASPSLLSPWGPWAGSGSISSPGSTGSPLHEEPSPPSPQNGPGTAVPAPTDFRPSATPEDLLASPLSPSEVAAVPPADPGPEALHPTVPLDLPPATVPATTFPGAMGSVKPALDWLTREGGELPEADEWTGGDAPAFSTSTLLSGDGDSAELEGPPAPLILPSSLDYQYDTPGLWELEEATLGASSCPCVESVQGSTLMPVHVEREIRLLGRNLHLFQDGPGDNECVMELEGLEVVVEARVECEPPPDTQCHVTCQQHQLSYEALQPELRVGLFLRRAGRLRVDSAEGLHVVLYDCSVGHGDCSRCQTAMPQYGCVWCEGERPRCVTREACGEAEAVATQCPAPLIHSVEPLTGPVDGGTRVTIRGSNLGQHVQDVLGMVTVAGVPCAVDAQEYEVSSSLVCITGASGEEVAGATAVEVPGRGRGVSEHDFAYQDPKVHSIFPARGPRAGGTRLTLNGSKLLTGRLEDIRVVVGDQPCHLLPEQQSEQLRCETSPRPTPATLPVAVWFGATERRLQRGQFKYTLDPNITSAGPTKSFLSGGREICVRGQNLDVVQTPRIRVTVVSRMLQPSQGLGRRRRVVPETACSLGPSCSSQQFEEPCHVNSSQLITCRTPALPGLPEDPWVRVEFILDNLVFDFATLNPTPFSYEADPTLQPLNPEDPTMPFRHKPGSVFSVEGENLDLAMSKEEVVAMIGDGPCVVKTLTRHHLYCEPPVEQPLPRHHALREAPDSLPEFTVQMGNLRFSLGHVQYDGESPGAFPVAAQ
As for B1, the Kd in assay [6] came to 0.0354 µM.

B2: WT rhSema4A-Fc (GenScript) (Fc fusion, human, UniProt Q9H3S1 33-683, looked up)
chain: GGGQGPMPRVRYYAGDERRALSFFHQKGLQDFDTLLLSGDGNTLYVGAREAILALDIQDPGVPRLKNMIPWPASDRKKSECAFKKKSNETQCFNFIRVLVSYNVTHLYTCGTFAFSPACTFIELQDSYLLPISEDKVMEGKGQSPFDPAHKHTAVLVDGMLYSGTMNNFLGSEPILMRTLGSQPVLKTDNFLRWLHHDASFVAAIPSTQVVYFFFEETASEFDFFERLHTSRVARVCKNDVGGEKLLQKKWTTFLKAQLLCTQPGQLPFNVIRHAVLLPADSPTAPHIYAVFTSQWQVGGTRSSAVCAFSLLDIERVFKGKYKELNKETSRWTTYRGPETNPRPGSCSVGPSSDKALTFMKDHFLMDEQVVGTPLLVKSGVEYTRLAVETAQGLDGHSHLVMYLGTTTGSLHKAVVSGDSSAHLVEEIQLFPDPEPVRNLQLAPTQGAVFVGFSGGVWRVPRANCSVYESCVDCVLARDPHCAWDPESRTCCLLSAPNLNSWKQDMERGNPEWACASGPMSRSLRPQSRPQIIKEVLAVPNSILELPCPHLSALASYYWSHGPAAVPEASSTVYNGSLLLIVQDGVGGLYQCWATENGFSYPVISYWVDSQDQTLALDPELAGIPREHVKVPLTRVSGGAALAAQQSYWPH
notes: Semaphorin 4A, human; also called WT Sema4A; WT Sema4A-Fc; source: bought: GenScript
Consider B2, for which the figures for the Kd in assay [7] and in assay [8] were 0.00255 µM and 0.0025 µM, respectively.

B3: M198A rhSema4A-Fc (Fc fusion, human, UniProt Q9H3S1 33-683, looked up)
chain: GGGQGPMPRVRYYAGDERRALSFFHQKGLQDFDTLLLSGDGNTLYVGAREAILALDIQDPGVPRLKNMIPWPASDRKKSECAFKKKSNETQCFNFIRVLVSYNVTHLYTCGTFAFSPACTFIELQDSYLLPISEDKVMEGKGQSPFDPAHKHTAVLVDGMLYSGTANNFLGSEPILMRTLGSQPVLKTDNFLRWLHHDASFVAAIPSTQVVYFFFEETASEFDFFERLHTSRVARVCKNDVGGEKLLQKKWTTFLKAQLLCTQPGQLPFNVIRHAVLLPADSPTAPHIYAVFTSQWQVGGTRSSAVCAFSLLDIERVFKGKYKELNKETSRWTTYRGPETNPRPGSCSVGPSSDKALTFMKDHFLMDEQVVGTPLLVKSGVEYTRLAVETAQGLDGHSHLVMYLGTTTGSLHKAVVSGDSSAHLVEEIQLFPDPEPVRNLQLAPTQGAVFVGFSGGVWRVPRANCSVYESCVDCVLARDPHCAWDPESRTCCLLSAPNLNSWKQDMERGNPEWACASGPMSRSLRPQSRPQIIKEVLAVPNSILELPCPHLSALASYYWSHGPAAVPEASSTVYNGSLLLIVQDGVGGLYQCWATENGFSYPVISYWVDSQDQTLALDPELAGIPREHVKVPLTRVSGGAALAAQQSYWPH
notes: Semaphorin 4A, human; as the WT Sema4A-Fc of GenScript with M198A; Similar molecular size as the WT Sema4A-Fc protein prepared similarly; also called Sema4A-M198A; Mu M198A Sema4A; source: prepared by GenScript
For the molecule B3, the results for the Kd in assay [7] and in assay [8] were 0.00419 µM and 0.0017 µM, respectively.

B4: F223A rhSema4A-Fc (Fc fusion, human, UniProt Q9H3S1 33-683, looked up)
chain: GGGQGPMPRVRYYAGDERRALSFFHQKGLQDFDTLLLSGDGNTLYVGAREAILALDIQDPGVPRLKNMIPWPASDRKKSECAFKKKSNETQCFNFIRVLVSYNVTHLYTCGTFAFSPACTFIELQDSYLLPISEDKVMEGKGQSPFDPAHKHTAVLVDGMLYSGTMNNFLGSEPILMRTLGSQPVLKTDNALRWLHHDASFVAAIPSTQVVYFFFEETASEFDFFERLHTSRVARVCKNDVGGEKLLQKKWTTFLKAQLLCTQPGQLPFNVIRHAVLLPADSPTAPHIYAVFTSQWQVGGTRSSAVCAFSLLDIERVFKGKYKELNKETSRWTTYRGPETNPRPGSCSVGPSSDKALTFMKDHFLMDEQVVGTPLLVKSGVEYTRLAVETAQGLDGHSHLVMYLGTTTGSLHKAVVSGDSSAHLVEEIQLFPDPEPVRNLQLAPTQGAVFVGFSGGVWRVPRANCSVYESCVDCVLARDPHCAWDPESRTCCLLSAPNLNSWKQDMERGNPEWACASGPMSRSLRPQSRPQIIKEVLAVPNSILELPCPHLSALASYYWSHGPAAVPEASSTVYNGSLLLIVQDGVGGLYQCWATENGFSYPVISYWVDSQDQTLALDPELAGIPREHVKVPLTRVSGGAALAAQQSYWPH
notes: Semaphorin 4A, human; as the WT Sema4A-Fc of GenScript with F223A; Similar molecular size as the WT Sema4A-Fc protein prepared similarly; also called Sema4A-F223A; Mu F223A Sema4A; source: prepared by GenScript
As to B4, the Kd in assay [7] was 0.00282 µM; in assay [8], 0.0035 µM.

The values above are taken from paper PMC8953949, “Identifying Function Determining Residues in Neuroimmune Semaphorin 4A” (International Journal of Molecular Sciences, 2022).
